Columns and labels:
[1] = biological target: human RetGC1 p.(Arg624Gln) (human) (UniProt Q02846)
[2] = biological target: human RetGC1 p.(Leu587Val) (human) (UniProt Q02846)
[3] = biological target: human RetGC1 p.(Tyr555Ser) (human) (UniProt Q02846)
[4] = biological target: T1, human retinal guanylyl/guanylate cyclase 1 (RetGC1), wild type (human) (UniProt Q02846)
T1 sequence: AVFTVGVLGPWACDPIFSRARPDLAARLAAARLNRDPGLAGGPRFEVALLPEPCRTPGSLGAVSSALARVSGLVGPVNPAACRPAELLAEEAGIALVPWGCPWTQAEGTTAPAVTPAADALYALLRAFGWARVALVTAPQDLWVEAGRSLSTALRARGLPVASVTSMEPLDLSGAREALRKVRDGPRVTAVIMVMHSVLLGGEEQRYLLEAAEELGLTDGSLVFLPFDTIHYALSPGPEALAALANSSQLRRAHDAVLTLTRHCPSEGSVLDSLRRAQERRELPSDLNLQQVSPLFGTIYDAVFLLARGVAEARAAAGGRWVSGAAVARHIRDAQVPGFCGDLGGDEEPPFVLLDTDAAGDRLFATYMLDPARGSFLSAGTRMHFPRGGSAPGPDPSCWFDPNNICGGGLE

[GCAP]1/2: GCAP1 concentration producing half-maximal stimulation of guanylyl cyclase activity (HEK293 membranes, 10 mM MgCl2, 2 mM EGTA) [1]: 4.1 µM | [GCAP]1/2: GCAP1 concentration producing half-maximal stimulation of guanylyl cyclase activity (HEK293 membranes, 10 mM MgCl2, 2 mM EGTA) [2]: 2.4 µM | [GCAP]1/2: GCAP1 concentration producing half-maximal stimulation of guanylyl cyclase activity (HEK293 membranes, 10 mM MgCl2, 2 mM EGTA) [3]: 4.4 µM | [GCAP]1/2: GCAP1 concentration producing half-maximal stimulation of guanylyl cyclase activity (HEK293 membranes, 10 mM MgCl2, 2 mM EGTA) [4]: 0.98 µM
B1: Human GCAP1 (Ser6) (natural protein)
chain: MGNVMSGKSVEELSSTECHQWYKKFMTECPSGQLTLYEFRQFFGLKNLSPSASQYVEQMFETFDFNKDGYIDFMEYVAALSLVLKGKVEQKLRWYFKLYDVDGNGCIDRDELLTIIQAIRAINPCSDTTMTAEEFTDTVFSKIDVNGDGELSLEEFIEGVQKDQMLLDTLTRSLDLTRIVRRLQNGEQDEEGADEAAEAAG

Reference: article PMC12155690
